Consider twelve molecules from patent publication US20190127480A1 (Regeneron, published 2019).

Assay [1] has as its target T1, Soluble heterodimeric CD3 protein (hCD3-epsilon/hCD3-delta) with either a human Fc tag (hFcΔAdp/hFc) or a … (human, UniProt P07766 23-126; P04234 22-105).
T1 construct: also called hCD3ε/δ; not shown: Fc tag: human (hFcΔAdp/hFc)
As to the kind of experiment: SPR Biacore 25C antigen-capture. The procedure: (§1) Measurements were conducted on a T200 Biacore™ instrument.
In the antigen-capture format, heterodimeric CD3 protein was captured using a rabbit anti-mouse Fc or mouse anti-human Fc and the respective antibodies were injected over the captured antigen.
(§2) Kinetic association (kₐ) and dissociation (kd) rate constants were determined by processing and fitting the data to a 1:1 binding model using Scrubber 2.0 curve fitting software. Binding dissociation equilibrium constants (KD) and dissociative half-lives (t₁₁₂) were calculated from the kinetic rate constants as: KD (M)=kd/kₐ; and t_{1/2} (min)=(ln 2/(60*kd). NT=not tested; NB=no binding observed.

The target of assay [2] is T1, Soluble heterodimeric CD3 protein …. As to the kind of experiment: SPR Biacore 25C antibody-capture. The procedure:
as §1
Soluble heterodimeric CD3 protein (hCD3-epsilon/hCD3-delta; SEQ ID NOs:1652/1653) with either a human Fc tag (hFcΔAdp/hFc; SEQ ID NOs:1683/1684) or a mouse Fc tag (mFcΔAdp/mFc; SEQ ID NOs:1685/1686) was injected over the antibody captured surface and the binding response was recorded. Heterodimeric CD3 protein was purified using the method described in Davis et al. (US2010/0331527).
as §2
Background: SPR reads the build-up and loss of mass on a sensor chip optically.

T1 sequence (P07766 23-126 limits assumed, stated change not applied, chain 1 of 2): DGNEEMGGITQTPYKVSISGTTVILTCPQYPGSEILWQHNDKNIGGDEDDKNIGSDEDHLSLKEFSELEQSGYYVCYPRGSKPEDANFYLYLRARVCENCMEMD
T1 sequence (P04234 22-105 limits assumed, stated change not applied, chain 2 of 2): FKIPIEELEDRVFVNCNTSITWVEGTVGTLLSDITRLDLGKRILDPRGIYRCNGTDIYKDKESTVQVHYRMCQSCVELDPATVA

B1: H1H5778P (antibody, human IgG1, V domains shown)
VH: EVQLVESGGGLVQPGRSLRLSCVASGFTFADFTMHWVRQAPGKGLEWVSGISWNSNSIDYADSVKGRFTISRDNAKKSLFLQMSSLRAEDTALYYCVKDRSGYSRFYYGMDVWGQGTTVTVSS
VL: EIVMTQSPATLSVSPGERAILSCRASQNINSNLAWYQQKPGQAPRLLIYGASTRATGVPARFSGSGSGTEFTLTIRSLQSEDFAVYYCQQYYNWPITFGHGTRLEIK
notes: H1H: human IgG1 Fc; divalent
A word on the Kd: it is the free concentration of one partner at which half of the binding sites on the other are occupied at equilibrium, for simple one-to-one binding. Low values mean tighter binding, high ones weaker binding. A word on the koff: it is the rate constant with which the complex falls apart. A higher koff goes with a short-lived complex. Broadly, the kon is the second-order rate constant of association. A higher kon goes with faster complex formation. Turning to B1, in assay [1], binding was put at a Kd of 0.0856 nM, the “T½” value came out at 338 min, the koff is 3.42e-05 s⁻¹ and the kon turned out to be 399000 M⁻¹ s⁻¹. Besides, in assay [2], the Kd worked out at 27.8 nM, the “T½” value was 75 min, the koff came out at 0.000154 s⁻¹ and the kon was 5520 M⁻¹ s⁻¹.

B2: H1H5758B (antibody, human IgG1, V domains shown)
VH: EVQLVESGGGVVQPGRSLRLSCAASGFTFSSYGMHWVRQAPGKGLEWVTVILHDGSNRYYADSVKGRFTISRDNSKNTLYLQMNILRAEDTAVYYCTKGAMVRGVPYNHYYGMDVWGQGTTVTVSS
VL: DIVMTQSPSSLSASVGDRVTITCRASQGIRNDLGWYQQKPGKAPKRLIYAASNLQSGVPSRFSGSGSGTEFTLTISSLQPEDFATYYCLQHNSYPYTFGQGTKLEIKR
notes: H1H: human IgG1 Fc; divalent
For B2, in assay [1], the Kd was 3.97 nM, the “T½” value amounted to 21 min, the koff was 0.000562 s⁻¹ and the kon was 142000 M⁻¹ s⁻¹. Moreover, in assay [2], the Kd was found to be 233 nM, the “T½” value is 10 min, the off-rate (koff) amounted to 0.00117 s⁻¹ and the kon worked out at 5020 M⁻¹ s⁻¹.

B3: H1H5764P (antibody, human IgG1, V domains shown)
VH: QVQLVESGGGVVQPGRSLRLSCAASGFTFRSFGMHWVRQAPGKGLEWVAVISYDGNYKYYADSVKGRFTISRDNSKNTLYLQMNSLRAEDTAVHYCAKGAMVRGVPYNFYYGMDVWGQGTTVTVSS
VL: DIQMTQSPSSLSASVGDRVTITCRASQVIRNDLGWYQQKPGKAPKRLIYAASSLQSGIPSRFSGSGSGTEFTLTISSLQPEDFATYYCLQHNSYPYTFGQGTKLEIK
notes: H1H: human IgG1 Fc; divalent
With B3, in assay [1], the Kd was found to be 21 nM, the “T½” value stood at 2 min, the off-rate constant (koff) was determined as 0.00736 s⁻¹ and the kon is 350000 M⁻¹ s⁻¹. In addition, in assay [2], the affinity, expressed as Kd, was 3820 nM; the “T½” value came out at 1 min; the off-rate constant (koff) came to 0.0159 s⁻¹; the kon worked out at 4160 M⁻¹ s⁻¹.

B4: H1H5763P (antibody, human IgG1, V domains shown)
VH: QVQLVESGGGVVQPGRSLRLSCAASGLTFSSYGMHWVRQAPGKGLEWVAVISYDGSNKYYTDSVKGRFTISRDNSKNTLYLQMNSLRAEDTAVYYCAKGAMVRGVPYNYYYGMDVWGQGTTVTVSS
VL: DIQMTQSPSSLSASVGDRVTITCRASQGIRNDLGWYQQKPGKAPKRLIYAASSLQSGVPSRFSGSGSGTEFTLTISSLQPEDFATYYCLQHNSYPYTFGQGTKLEIK
notes: H1H: human IgG1 Fc; divalent
On to B4, for which, in assay [1], the Kd was 92.4 nM, the “T½” value was determined as 1 min, the koff is 0.017 s⁻¹ and the kon came out at 184000 M⁻¹ s⁻¹. Besides, in assay [2], the Kd was found to be 2920 nM, the “T½” value came to 0 min, the koff stood at 0.054 s⁻¹ and the kon worked out at 18500 M⁻¹ s⁻¹.

B5: H1H5786B (antibody, human IgG1, V domains shown)
VH: QVQLVESGAEVKKPGASVKVSCKTSGYTFTGYYMHWIRQAPGQGLEWMGWINPKSGGTNYAQKFQGRVTMTRDTSISTAYMELSRLRSDDMAVYYCARMGDGAVFDFWGQGTLVTVSS
VL: AIQMTQSPSSLSASVGDRVTITCRASQRISSFLNWYQQKPGKAPKLLIYTASNLQNGVPSRFSGSGSGTDFTLTISSLQPEDFATYYCQQSYRTPLTFGGGTKVEIKR
notes: H1H: human IgG1 Fc; divalent
Regarding B5, in assay [1], the Kd came to 0.141 nM, the “T½” value was 27 min, the off-rate constant (koff) amounted to 0.000424 s⁻¹ and the kon amounted to 3e+06 M⁻¹ s⁻¹. Besides, in assay [2], binding was put at a Kd of 85.4 nM, the “T½” value amounted to 11 min, the koff was 0.00108 s⁻¹ and the kon came out at 12600 M⁻¹ s⁻¹.

B6: H1H5790B (antibody, human IgG1, V domains shown)
VH: EVQLVESGGGVVQPGRSLRLSCAASGFTFSYYGMHWVRQAPGKGLEWVAVISFDGKNKYYADSVMGRFTISRDNSKNTLYLQMNSLRAEDSAVFFCARSYDILTGYGAGYSYHYGMDVWGQGTTVTVSS
VL: AIQMTQSPSSLSASVGDRVTITCRASQRISSFLNWYQQKPGKAPKLLIYTASNLQNGVPSRFSGSGSGTDFTLTISSLQPEDFATYYCQQSYRTPLTFGGGTKVEIKR
notes: H1H: human IgG1 Fc; divalent
Turning to B6, in assay [1], the dissociation constant Kd is 0.254 nM, the “T½” value is 49 min, the koff is 0.000236 s⁻¹ and the on-rate (kon) was determined as 925000 M⁻¹ s⁻¹. In assay [2], the equilibrium dissociation constant (Kd) was determined as 28.3 nM, the “T½” value is 22 min, the dissociation rate constant (koff) came out at 0.000517 s⁻¹ and the association rate constant (kon) was determined as 18200 M⁻¹ s⁻¹.

B7: H1H5791B (antibody, human IgG1, V domains shown)
VH: QVQLVESGAEVKKPGASVKVSCKTSGYTLSGYYMHWMRQAPGQGLEWMGWINPKSGVTNYAQKFQDRVAMTRDTSISTAYMELSRLRSDDTAVYYCARMGDGAVFDFWAQGTLVTVSS
VL: DIQLTQSPSSLSASVGDRVTITCRASQRISSFLNWYQQKPGKAPKLLIYTASNLQNGVPSRFSGSGSGTDFTLTISSLQPEDFATYYCQQSYRTPLTFGGGTKLEIKR
notes: H1H: human IgG1 Fc; divalent
For B7, in assay [1], the Kd was 0.433 nM, the “T½” value was found to be 34 min, the dissociation rate constant (koff) was found to be 0.00034 s⁻¹ and the kon was determined as 786000 M⁻¹ s⁻¹. Also, in assay [2], the Kd worked out at 72.5 nM, the “T½” value came out at 15 min, the koff is 0.00079 s⁻¹ and the kon was found to be 10900 M⁻¹ s⁻¹.

B8: H1H5771P (antibody, human IgG1, V domains shown)
VH: EVQLVESGGGLVQPGRSLRLSCAASGFSFDNYAMHWVRQAPGQGLEWVSGISWNSGSRDYADSVKGRFTISRDNARNSLFLQMNSLSNEDTAMYYCAKDKSGYGSYFYGMDVWGQGTTVTVSS
VL: EIVLTQSPGTLSLSPGDRATLSCRASQSIRNIYLAWYQQKPGQAPRLLIHGASTRATGIPDRFSGSGSGTDFTLTISRLEPEDFAVYYCQQRVSLPYTFGQGTKLEIK
notes: H1H: human IgG1 Fc; divalent
On to B8, for which, in assay [1], binding was put at a Kd of 0.371 nM, the “T½” value is 34 min, the off-rate (koff) was found to be 0.000342 s⁻¹ and the association rate constant (kon) came out at 923000 M⁻¹ s⁻¹. Moreover, in assay [2], the affinity, expressed as Kd, was 20.9 nM; the “T½” value was found to be 18 min; the koff turned out to be 0.000626 s⁻¹; the kon was determined as 30000 M⁻¹ s⁻¹.

B9: H1H5781P (antibody, human IgG1, V domains shown)
VH: EVQLVESGGGLVQPGRSLRLSCAASGFTFDDFTMHWVRQAPGKGLEWVSDISWNSGSIDYADSVKGRFTISRDNARNSLFLQMSSLRTEDTASYYCIKDKSGYGSYNYGLDVWGQGTTVTVSS
VL: EIVLTQSPGTLSLSPGDRATLSCRASQSVSSIYLAWYQQKPGQAPRLLIHGASTRATGIPDRFSGSGSGTDFTLTISRLEPEDFALYYCHQRVSSPYTFGQGTKLEIK
notes: H1H: human IgG1 Fc; divalent
With B9, in assay [1], binding was characterised by a dissociation constant (Kd) of 1.92 nM, the “T½” value came out at 43 min, the koff was found to be 0.000268 s⁻¹ and the on-rate (kon) came out at 140000 M⁻¹ s⁻¹. In assay [2], the Kd is 57.7 nM, the “T½” value stood at 23 min, the koff worked out at 0.000497 s⁻¹ and the kon worked out at 8610 M⁻¹ s⁻¹.

B10: H1H5772S (antibody, V domains shown)
VH: QVQLVESGGGLVQPGRSLRLSCAASGFSFDDYAMHWVRQAPGQGLEWVSGISWNGGSRDYADSVKGRFTISRDNARNSLFLQMNSLFTEDTALYYCAKDKSGYGSYFYGMDVWGQGTTVTVSS
VL: EIVLTQSPGILSLSPGDRATLSCRASQSIRNIYLAWYQQKPGQAPRLLIHGASTRATGIPDRFSGSGSGTDFTLTISRLEPEDFAVYYCQQRVSSPYTFGQGTKLEIK
notes: H1H: human IgG1 Fc; divalent; also called H1H5772P
For the molecule B10, in assay [1], the dissociation constant Kd stood at 1.67 nM, the “T½” value was found to be 13 min, the dissociation rate constant (koff) is 0.000869 s⁻¹ and the kon was found to be 519000 M⁻¹ s⁻¹. In assay [2], binding was characterised by a dissociation constant (Kd) of 99.6 nM, the “T½” value was 7 min, the koff was found to be 0.00155 s⁻¹ and the kon is 15600 M⁻¹ s⁻¹.

B11: H1H5780P (antibody, human IgG1, V domains shown)
VH: EVQLVESGGGLVQPGRSLRLSCAASGFTFDDYAMHWVRQAPGKGLEWVSGISWNGGSKDYADSVKGRFTISRDNTRNSLSLQMNSLRIEDTALYYCAKDKSGYGSFYYGLDVWGQGTTVTVSS
VL: EIVLTQSPGTLSLSPGDRATLSCRASQSIRSIYLAWYQQKPGQAPRLLIHGASTRATGIPDRFSGSGSGTDFTLTISRLEPEDFAVYYCQQRVSSPYTFGQGTKLEIK
notes: H1H: human IgG1 Fc; divalent
For the molecule B11, in assay [1], the affinity, expressed as Kd, was 0.358 nM; the “T½” value was determined as 68 min; the dissociation rate constant (koff) worked out at 0.000171 s⁻¹; the kon came out at 478000 M⁻¹ s⁻¹. In addition, in assay [2], the affinity, expressed as Kd, was 30.4 nM; the “T½” value stood at 29 min; the koff stood at 0.000399 s⁻¹; the on-rate (kon) amounted to 13100 M⁻¹ s⁻¹.

B12: H1H5793B (antibody, human IgG1, V domains shown)
VH: QVQLVQSGTEVKKPGASMKVSCKASGYTFTGYYIHWVRQAPGQGLEWMGWINPNSDVTKYAQKFQGRVTLTRDTSISAAYIDLSRLRSDDTAIYYCARMGDGAVFDYWGQGTLVTVSS
VL: DIQLTQSPSSLSASVGDRVTITCRASQRISSYLNWYQQKPGKAPKVLISVASSLQSGVPSRFSGSGFGTDFTLTISSLQPEDSASYYCQQSYNTPLTFGGGTKLEIKR
notes: H1H: human IgG1 Fc; divalent
Turning to B12, in assay [1], the equilibrium dissociation constant (Kd) amounted to 0.333 nM, the “T½” value was 73 min, the koff amounted to 0.000159 s⁻¹ and the kon came to 478000 M⁻¹ s⁻¹. Also, in assay [2], the Kd was determined as 44.7 nM, the “T½” value worked out at 30 min, the off-rate constant (koff) came to 0.000382 s⁻¹ and the kon came to 8540 M⁻¹ s⁻¹.
